The record followed here is the supplement of paper PMC10567573.

This data set is described as follows: protein stability index of a GFP-peptide fusion (GPS, HEK-293T) (PSI 1-6); higher = more stable.
The mark [1] stands for this setting: treatment: DMSO, c terminus: a fixed tail appended.
Where [2] appears, read: treatment: MLN4924 1 uM, 8 h, c terminus: a fixed tail appended.

± gives the standard deviation.
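Note: 24-mer peptide tiles fused after GFP, lentivirally expressed, FACS-sorted into six equal bins by GFP/DsRed ratio, decoded by Illumina sequencing, PSI is the read-weighted mean bin number.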

As to EVKSSIAGSSTWERYFIPVSCFLT [SLC29A1], the protein stability index under setting [1] was found to be 2.44 ± 0.37 and the protein stability index under setting [2] came out at 2.34 ± 0.36. The matching figures for EVYYAKKKRRAQQAPPQDSSNKKE [DYRK1B]: 4.45 ± 0.28 and 4.77 ± 0.24. The matching figures for EYIVKKLSRQEFLGMVGLFGTIIS [SLC35F2]: 2.43 ± 0.26 and 2.44 ± 0.27. On the same counts, the results for EYQLYEDIGKGAFSVVRRCVKLCT [CAMK2B] are 2.45 ± 0.26 and 2.25 ± 0.36.

Take FACPSQALFFKNIMNIIDIVSILP [KCNA4]: the protein stability index reads like this: under setting [1], 3.02 ± 0.073; under setting [2], 2.85 ± 0.27. The matching figures for FDIQKIMQEKNPVHVIGVEEPSVG [ZNF8]: 4.07 ± 0.39 and 4 ± 0.4.

For FDIRILMAKSVKYTVNFLEAKEGD [CARM1], the protein stability index under setting [1] amounted to 2.27 ± 0.28 and the protein stability index under setting [2] was 2.33 ± 0.33. The matching figures for FDPLRNEYFFDRNRPSFDAILYYY [KCNA1]: 2.68 ± 0.45 and 2.73 ± 0.48. Turning to FEGDMGAAGGDGELGSPLRRSISS [PSD2], the protein stability index runs as follows: under setting [1], 4.81 ± 0.2; under setting [2], 4.94 ± 0.13.

As for FENPADAKNAAKDMNGKSLHGKAI [RBMY1A1], the protein stability index came out at 4.92 ± 0.14 under setting [1] and 5 ± 0.23 under setting [2].

FFGVFQSFVVLLYILDNETNFVVQ [CLPTM1]: the protein stability index runs as follows: under setting [1], 3.19 ± 0.33; under setting [2], 2.86 ± 0.42. The sequence FFLRGRLDQLLRHVMNPLETLSIT [PRAME] returned a protein stability index under setting [2] of 2.1 ± 0.52. FFSKRFKSAAMLAVFAVSAVVHEY [SOAT1] came in with a protein stability index under setting [1] of 2.35 ± 0.9 and a protein stability index under setting [2] of 3.06 ± 0.41.

Turning to FHYIIEQGVCYLVLCEAAFPKKLA [SEC22B], the protein stability index under setting [1] turned out to be 3.01 ± 0.71 and the protein stability index under setting [2] was 2.68 ± 0.63.

For the sequence FIAGLCVFIISTLAIDFIDEGRLL [SOAT2], the protein stability index runs as follows: under setting [1], 2.81 ± 0.6; under setting [2], 3.01 ± 0.33.

Take FIRCSLQCRDLVDEAKKFHLRPEL [KLHL12]: the protein stability index under setting [1] is 2.67 ± 0.8 and the protein stability index under setting [2] was found to be 2.82 ± 1.4.

Regarding FKLDKKYQRPQDSEDMWGDEDFTF [FBF1], the protein stability index runs as follows: under setting [1], 4.12 ± 0.18; under setting [2], 4.14 ± 0.23.

As for FKMLDPDGKGKINKEYIKRLLMSQ [MYL5], the protein stability index is 2.41 ± 0.28 under setting [1] and 2.63 ± 0.3 under setting [2].

Regarding FLDNGYGHCLLDKPEAPLHLPVTF [ADAMTS4], the protein stability index by setting is: under setting [1], 2.07 ± 0.37; under setting [2], 2.16 ± 0.14. In the case of FLQRCLESPFSRKLDLWSFLDIPR [NET1], the protein stability index by setting is: under setting [1], 2.45 ± 0.47; under setting [2], 2.1 ± 0.18.

Consider FLTLEKFTIHNYSHSRERPYKCVQ [PLAGL1], for which the protein stability index reads like this: under setting [1], 2.68 ± 0.26; under setting [2], 2.13 ± 0.24. In the case of FLVFVIVLFFIYHFMQAEEGNPF [EMD], the protein stability index runs as follows: (treatment: DMSO, c terminus: native) 2.94 ± 0.44; (treatment: MLN4924 1 uM, 8 h, c terminus: native) 2.83 ± 0.17.

Take FMPQGAGGHTREARIQTLEPDNWM [RSAD1]: the protein stability index amounted to 3.27 ± 0.33 under setting [1] and 3.11 ± 0.29 under setting [2].

As to FNFVSTPKCSCGQLAAVHLSKSRT [RNF180], the protein stability index under setting [1] worked out at 2.14 ± 0.43 and the protein stability index under setting [2] stood at 2.05 ± 0.26. On the same counts, the results for FNLFCQKRFDESMQVFAKLGTDPT [VPS39] are 2.68 ± 0.36 and 2.68 ± 0.11. The matching figures for FPDVPLGIFLFCVCVIAIGVVQAL [TMEM175]: 2.63 ± 0.62 and 2.28 ± 1.2. In the case of FPRMLLVDRLPGLQGALDLLAVLC [ZSWIM9], the protein stability index came to 2.29 ± 0.18 under setting [1] and 2.25 ± 0.084 under setting [2]. On the same counts, the results for FQELAGKELCAMSEEQFRQRSPLG [SPDEF] are 3.1 ± 0.42 and 3.59 ± 0.33.

For FQRAMHDYNQAEMKQRDNCKIRIQ [STX11], the protein stability index runs as follows: under setting [1], 3.08 ± 0.33; under setting [2], 3.44 ± 0.37. On the same counts, the results for FRCSVCSRQLLPGDEFSLREHELL [ISL2] are 2.39 ± 0.4 and 2.24 ± 0.59.

FRHDRLRFRDFVDALEDSLEEVAV [PBXIP1] returned a protein stability index under setting [1] of 3.04 ± 0.47 and a protein stability index under setting [2] of 3.48 ± 0.3. For FRIILGDFDYNAIDNANRILGPAY [PKD2L1], the protein stability index reads like this: under setting [1], 2.74 ± 0.55; under setting [2], 2.62 ± 0.55. The matching figures for FSGQIRLNEDTIQDVVQAADLLLL [GAN]: 2.27 ± 0.24 and 2.3 ± 0.43. On the same counts, the results for FSLFGDISVLQQQGSLSNTYLSKV [FBXO33] are 2.12 ± 0.38 and 2.13 ± 0.096. On to FSPDFTLRNTLKSTSEDSLVKQEC [FAN1], for which the protein stability index by setting is: under setting [1], 2.67 ± 0.58; under setting [2], 3.43 ± 0.85. The matching figures for FSQLEDKFPGQSSFLWQRGRKFLQ [TOR1AIP2]: 2.69 ± 0.22 and 2.75 ± 0.34. The matching figures for FTIHNYSHSRERPYKCVQPDCGKA [PLAGL1]: 2.86 ± 0.45 and 2.89 ± 0.37.

For the sequence FVQILLALHHVHTHLILHRDLKTQ [NEK8], the protein stability index turned out to be 2.98 ± 0.064 under setting [1] and 3.01 ± 0.2 under setting [2]. As for FVSRYKLMRHMATHSPQKSHQCAH [PLAGL1], the protein stability index by setting is: under setting [1], 2.7 ± 0.37; under setting [2], 2.55 ± 0.38.

For FWDLFRSKDNMRTRIMIGLTLVFF [SLC2A12], the protein stability index reads like this: under setting [1], 2.53 ± 0.55; under setting [2], 2.67 ± 0.39. FYFKLTDLYKKVKKNSSPPLSLYG [CRY1]: the protein stability index by setting is: under setting [1], 2.7 ± 0.51; under setting [2], 2.69 ± 0.49. On the same counts, the results for GAGLPQFQSISLRKIQFNFPYFRS [CLCN6] are 2.13 ± 0.26 and 2.21 ± 0.41.

GAIAQSSIYPMEVLKTRMALRKTG [SLC25A25] gave a protein stability index under setting [1] of 3.54 ± 0.11 and a protein stability index under setting [2] of 3.74 ± 0.28. GALYGITLIPTCKFYTWLWGVFYY [SCD]: the protein stability index under setting [1] stood at 2.39 ± 0.41. GAYGNLKRLYDKAAKMYHQLKKCE [SMG5] displayed a protein stability index under setting [1] of 2.45 ± 1 and a protein stability index under setting [2] of 2.325 ± 0.014. The matching figures for GDKLKFLSMLLTLKCEMNQMSGEP [ACSBG2]: 2.38 ± 1.1 and 2.56 ± 1. Consider GEEALSLQALDPQQCVDKESSLGS [SLC22A15], for which the protein stability index was 5.36 ± 0.33 under setting [1] and 5.36 ± 0.32 under setting [2].

Consider GEENFEVVKQFVTGIIDSLTISPK [MATN2], for which the protein stability index came to 3.18 ± 0.2 under setting [1] and 3.32 ± 0.46 under setting [2]. On the same counts, the results for GEPLALPLDAGEYCVPRGNRRRFR [BEX1] are 4.8 ± 0.27 and 4.99 ± 0.25. The matching figures for GFVFGTTLIMLLSLAAFSVISVVS [RTN3]: 3.2 ± 0.33 and 2.61 ± 0.58. On the same counts, the results for GFVMVPFEYRGEQHKTCMLNATSK [EDNRA] are 2.24 ± 0.43 and 2.75 ± 0.37.

Consider GGAGKGRTPSAFPQTPAAPPATLG [EHMT1], for which the protein stability index came to 4.6 ± 0.13 under setting [1] and 4.79 ± 0.059 under setting [2].

As for GGFGQVYKVRHVHWKTWLAIKCSP [RIPK4], the protein stability index reads like this: under setting [1], 2.35 ± 0.85; under setting [2], 2.05 ± 0.32. The matching figures for GGRAYQALHCPTGTEYTCKVYPVQ [TRIB3]: 2.73 ± 0.3 and 2.76 ± 0.33. The matching figures for GHAQDLMDGLPPGDSNQLAWFDTD [CTNNB1]: 4.93 ± 0.31 and 4.7 ± 0.27.

With GHGNKVLCMDWCKDKRRIVSSSQD [GNB5], the protein stability index was 3.64 ± 0.28 under setting [1] and 3.85 ± 0.45 under setting [2].

The sequence GHGTRKRVPLGRLELLEEVLALGL [RSAD1] yielded a protein stability index under setting [1] of 2.15 ± 0.21 and a protein stability index under setting [2] of 2.3 ± 0.51. The matching figures for GIPWEAGARQISYSIPEELEKGSF [PCDHGA10]: 4.24 ± 0.059 and 3.87 ± 0.34.

As to GIRQITSDDFCTFQMVLEGGVCCT [GFOD1], the protein stability index reads like this: under setting [1], 2.18 ± 0.21; under setting [2], 2.22 ± 0.4.

GKEDSTLQLLREENRALQQLLEQK [CBY2]: the protein stability index by setting is: under setting [1], 4.81 ± 0.23; under setting [2], 4.84 ± 0.38. The matching figures for GKLLLRLPSLRTVSSSVIEQLFFV [NR2F2]: 2.81 ± 0.6 and 2.83 ± 0.34.

Regarding GLAFFTFPNIASATKFKQLYRSRM [HMOX1], the protein stability index under setting [1] was 2.39 ± 0.78 and the protein stability index under setting [2] was determined as 1.98 ± 0.34. On the same counts, the results for GLAGYLSGYDGTFLFQKPGDKYEH [POMT2] are 2.62 ± 0.7 and 2.91 ± 0.6.

With GLDSPPLYPSAPILGGSGPVRKLY [ESRRG], the protein stability index reads like this: under setting [1], 3.37 ± 0.13; under setting [2], 3.49 ± 0.24. The matching figures for GLGLEDADWTQGLPWRFEELLTCS [TEX19]: 2.42 ± 0.47 and 2.76 ± 0.62.

With GPQSRELTLKVLRSSSCGDTELLG [C2CD2L], the protein stability index was 3.47 ± 0.28 under setting [1] and 3.59 ± 0.2 under setting [2].

For GPRPPAGELGSIGDHERAIDFSPY [CEBPB], the protein stability index runs as follows: under setting [1], 4.15 ± 0.25; under setting [2], 4.28 ± 0.21.

Consider GPTSSNPRKRHREDSDVEMVEDDS [MLH1], for which the protein stability index under setting [1] was 5.32 ± 0.13 and the protein stability index under setting [2] is 5.22 ± 0.6. Turning to GQRDRKAEHWKHKKEESGRERKKN [PBXIP1], the protein stability index under setting [1] turned out to be 5.08 ± 0.12 and the protein stability index under setting [2] was found to be 5.4 ± 0.15. On the same counts, the results for GQVAEDRFPESHLPIQTPGAFLRT [TLE6] are 3.53 ± 0.48 and 3.99 ± 0.38.

On to GRCIHAGCDRIIGSKKKFDKCMVC [ADAMTS4], for which the protein stability index under setting [1] was determined as 3.66 ± 0.41 and the protein stability index under setting [2] was 3.56 ± 0.15.

Consider GRCTVRDFIHRHCQDQNVPVENFF [SDE2], for which the protein stability index is, setting by setting: under setting [1], 2.51 ± 0.4; under setting [2], 2.72 ± 0.049. The matching figures for GRDRNLAPDEKRSNVRWDHESVCK [LUC7L3]: 4.61 ± 0.41 and 4.55 ± 0.2.
